Experimental data as given in article PMC3464278, “Structural Characterization of the Complex of SecB and Metallothionein-Labeled proOmpA by Cryo-Electron Microscopy” (PLoS ONE, 2012).

Target: the molecule itself
Assay: cryo-EM structure; SecB/pOA1MTAu complex from gel filtration, vitrified on holey carbon grids, FEI Tecnai F20 at 200 kV; single particle analysis (EMAN), 19562 particles; about 20 Å; SecB crystal structure docked manually

B1: SecB (natural protein, E. coli)
chain: MSEQNNTEMTFQIQRIYTKDISFEAPNAPHVFQKDWQPEVKLDLDTASSQLADDVYEVVLRVTVTASLGEETAFLCEVQQGGIFSIAGIEGTQMAHCLGAYCPNILFPYARECITSMVSRGTFPQLNLAPVNFDALFMNYLQQQAGEGTEEHQ
notes: SecB, molecular chaperone of the Sec pathway, E. coli; also called molecular chaperon SecB; E. coli SecB; source: prepared as described previously [26]
Does B1 bind?
Result: binds
